T1: RBM41 RRM (C-terminal fragment) (Homo sapiens, UniProt Q96IZ5 267-413)
T1 sequence: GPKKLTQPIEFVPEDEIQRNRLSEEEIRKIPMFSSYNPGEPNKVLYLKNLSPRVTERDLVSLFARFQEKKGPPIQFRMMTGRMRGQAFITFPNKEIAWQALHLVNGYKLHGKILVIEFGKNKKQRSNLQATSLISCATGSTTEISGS

T2: U11/U12-65K C-terminal RRM (65K C-RRM) (Homo sapiens, UniProt Q96LT9 380-517)
T2 sequence: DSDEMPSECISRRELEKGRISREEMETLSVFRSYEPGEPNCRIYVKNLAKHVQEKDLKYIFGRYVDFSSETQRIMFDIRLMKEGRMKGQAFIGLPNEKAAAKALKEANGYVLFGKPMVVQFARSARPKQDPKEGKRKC


What was measured:
[1] = target: T1, RBM41 RRM (C-terminal fragment); test: EMSA; 20 mM HEPES-KOH pH 8.0, 100 mM KCl, 1.5 mM MgCl2, 5% glycerol, 0.1 ug/ul BSA, 1 ug/ul yeast RNA, 1 U/ul RiboLock; 5 nM RNA, 0.25-25 uM protein; 1 h on ice, gel; details: protein: recombinant; tags: GST tag removed with PreScission protease (untagged); label: 5' 32P; hairpin
[2] = target: T2, U11/U12-65K C-terminal RRM (65K C-RRM); test: as above; details: protein: recombinant; tags: GST tag removed with PreScission protease (untagged); label: 5' 32P; hairpin

Row | Binder | Kd [1] | Kd [2] | binding result [1] | binding result [2]
1 | GCCACCUACUUCGUGGC (structured_RNA) [U6atac-(92-108) hairpin] | 3.78 µM | 2.07 µM |  | 
2 | GGGCGGAUGAAACGCCC (structured_RNA) [U12comp control hairpin] |  |  | no binding | no binding
3 | CCCGCCUACUUUGCGGG (structured_RNA) [U12-(109-125) hairpin] | 2.14 µM | 1.04 µM |  | 
